From patent US20190233495A1 (Sanofi, published 2019)
Non-standard residues stand in square brackets, D forms with d. Phe(4-F) = N[C@@H](Cc1ccc(F)cc1)C(=O)O; 1Nal = N[C@@H](Cc1cccc2ccccc12)C(=O)O; αMeL = CC(C)C[C@](C)(N)C(=O)O; Nle = CCCC[C@H](N)C(=O)O; Aib = CC(C)(N)C(=O)O

T1: RXFP1 receptor (UniProt Q9HBX9 1-757, limits assumed)
T1 sequence (looked up): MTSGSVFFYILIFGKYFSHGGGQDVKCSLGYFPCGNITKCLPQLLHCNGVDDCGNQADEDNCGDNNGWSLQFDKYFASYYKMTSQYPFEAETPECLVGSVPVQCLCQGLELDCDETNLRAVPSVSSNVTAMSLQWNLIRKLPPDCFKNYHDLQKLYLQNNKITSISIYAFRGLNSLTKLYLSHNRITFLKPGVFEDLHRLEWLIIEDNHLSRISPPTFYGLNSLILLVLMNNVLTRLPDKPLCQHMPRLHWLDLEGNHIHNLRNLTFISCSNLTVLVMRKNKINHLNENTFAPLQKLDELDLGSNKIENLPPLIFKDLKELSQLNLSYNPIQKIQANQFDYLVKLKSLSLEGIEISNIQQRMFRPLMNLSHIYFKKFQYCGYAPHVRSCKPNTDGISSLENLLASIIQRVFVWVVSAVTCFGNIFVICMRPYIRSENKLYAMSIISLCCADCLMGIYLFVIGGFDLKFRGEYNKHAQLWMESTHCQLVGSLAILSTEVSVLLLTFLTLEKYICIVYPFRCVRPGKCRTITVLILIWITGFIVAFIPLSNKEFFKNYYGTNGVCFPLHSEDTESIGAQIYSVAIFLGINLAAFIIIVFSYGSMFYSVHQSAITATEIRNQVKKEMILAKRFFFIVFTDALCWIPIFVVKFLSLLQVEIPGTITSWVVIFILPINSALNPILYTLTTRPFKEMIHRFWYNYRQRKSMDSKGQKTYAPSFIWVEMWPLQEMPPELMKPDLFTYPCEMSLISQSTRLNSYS


The binders below were run against T1, RXFP1 receptor (assay: cell-based or functional assay).

| Binder | cAMP assay in OVCAR 5 cells EC50 [nM] | cAMP assay in OVCAR 5 cells Emax [%] |
| --- | --- | --- |
| Ac-LEGREKVRAQI[Aib][Aib]EGMSTWSKRKK-NH2 (SMILES CC[C@H](C)[C@H](NC(=O)[C@H](CCC(N)=O)NC(=O)[C@H](C)NC(=O)[C@H](CCCNC(=N)N)NC(=O)[C@@H](NC(=O)[C@H](CCCCN)NC(=O)[C@H](CCC(=O)O)NC(=O)[C@H](CCCNC(=N)N)NC(=O)CNC(=O)[C@H](CCC(=O)O)NC(=O)[C@H](CC(C)C)NC(C)=O)C(C)C)C(=O)NC(C)(C)C(=O)NC(C)(C)C(=O)N[C@@H](CCC(=O)O)C(=O)NCC(=O)N[C@@H](CCSC)C(=O)N[C@@H](CO)C(=O)N[C@H](C(=O)N[C@@H](Cc1c[nH]c2ccccc12)C(=O)N[C@@H](CO)C(=O)N[C@@H](CCCCN)C(=O)N[C@@H](CCCNC(=N)N)C(=O)N[C@@H](CCCCN)C(=O)N[C@@H](CCCCN)C(N)=O)[C@@H](C)O) [SEQ ID NO: 10] | 22.9 | 103 |
| Ac-LEGREKVR[Aib]QI[Aib]IEGMSKWSKRKK-NH2 (SMILES CC[C@H](C)[C@H](NC(=O)[C@H](CCC(N)=O)NC(=O)C(C)(C)NC(=O)[C@H](CCCNC(=N)N)NC(=O)[C@@H](NC(=O)[C@H](CCCCN)NC(=O)[C@H](CCC(=O)O)NC(=O)[C@H](CCCNC(=N)N)NC(=O)CNC(=O)[C@H](CCC(=O)O)NC(=O)[C@H](CC(C)C)NC(C)=O)C(C)C)C(=O)NC(C)(C)C(=O)N[C@H](C(=O)N[C@@H](CCC(=O)O)C(=O)NCC(=O)N[C@@H](CCSC)C(=O)N[C@@H](CO)C(=O)N[C@@H](CCCCN)C(=O)N[C@@H](Cc1c[nH]c2ccccc12)C(=O)N[C@@H](CO)C(=O)N[C@@H](CCCCN)C(=O)N[C@@H](CCCNC(=N)N)C(=O)N[C@@H](CCCCN)C(=O)N[C@@H](CCCCN)C(N)=O)[C@@H](C)CC) [SEQ ID NO: 7] | 56.6 | 101 |
| Ac-LEGREKVRAQI[Aib]IEG[Nle]SKWSKRKK-NH2 (SMILES CCCC[C@H](NC(=O)CNC(=O)[C@H](CCC(=O)O)NC(=O)[C@@H](NC(=O)C(C)(C)NC(=O)[C@@H](NC(=O)[C@H](CCC(N)=O)NC(=O)[C@H](C)NC(=O)[C@H](CCCNC(=N)N)NC(=O)[C@@H](NC(=O)[C@H](CCCCN)NC(=O)[C@H](CCC(=O)O)NC(=O)[C@H](CCCNC(=N)N)NC(=O)CNC(=O)[C@H](CCC(=O)O)NC(=O)[C@H](CC(C)C)NC(C)=O)C(C)C)[C@@H](C)CC)[C@@H](C)CC)C(=O)N[C@@H](CO)C(=O)N[C@@H](CCCCN)C(=O)N[C@@H](Cc1c[nH]c2ccccc12)C(=O)N[C@@H](CO)C(=O)N[C@@H](CCCCN)C(=O)N[C@@H](CCCNC(=N)N)C(=O)N[C@@H](CCCCN)C(=O)N[C@@H](CCCCN)C(N)=O) [SEQ ID NO: 8] | 60 | 103 |
| Ac-LEGREKVRAQI[Aib]IEGMSK[1Nal]SKRKK-NH2 (SMILES CC[C@H](C)[C@H](NC(=O)[C@H](CCC(N)=O)NC(=O)[C@H](C)NC(=O)[C@H](CCCNC(=N)N)NC(=O)[C@@H](NC(=O)[C@H](CCCCN)NC(=O)[C@H](CCC(=O)O)NC(=O)[C@H](CCCNC(=N)N)NC(=O)CNC(=O)[C@H](CCC(=O)O)NC(=O)[C@H](CC(C)C)NC(C)=O)C(C)C)C(=O)NC(C)(C)C(=O)N[C@H](C(=O)N[C@@H](CCC(=O)O)C(=O)NCC(=O)N[C@@H](CCSC)C(=O)N[C@@H](CO)C(=O)N[C@@H](CCCCN)C(=O)N[C@@H](Cc1cccc2ccccc12)C(=O)N[C@@H](CO)C(=O)N[C@@H](CCCCN)C(=O)N[C@@H](CCCNC(=N)N)C(=O)N[C@@H](CCCCN)C(=O)N[C@@H](CCCCN)C(N)=O)[C@@H](C)CC) [SEQ ID NO: 9] | 37.6 | 100 |

Continued, values first:

| cAMP assay in OVCAR 5 cells EC50 [nM] | cAMP assay in OVCAR 5 cells Emax [%] | Binder |
| --- | --- | --- |
| 24.4 | 91 | Ac-LEGREKVRAQI[Aib][Aib]EGQSTFS[Aib]RKK-NH2 (SMILES CC[C@H](C)[C@H](NC(=O)[C@H](CCC(N)=O)NC(=O)[C@H](C)NC(=O)[C@H](CCCNC(=N)N)NC(=O)[C@@H](NC(=O)[C@H](CCCCN)NC(=O)[C@H](CCC(=O)O)NC(=O)[C@H](CCCNC(=N)N)NC(=O)CNC(=O)[C@H](CCC(=O)O)NC(=O)[C@H](CC(C)C)NC(C)=O)C(C)C)C(=O)NC(C)(C)C(=O)NC(C)(C)C(=O)N[C@@H](CCC(=O)O)C(=O)NCC(=O)N[C@@H](CCC(N)=O)C(=O)N[C@@H](CO)C(=O)N[C@H](C(=O)N[C@@H](Cc1ccccc1)C(=O)N[C@@H](CO)C(=O)NC(C)(C)C(=O)N[C@@H](CCCNC(=N)N)C(=O)N[C@@H](CCCCN)C(=O)N[C@@H](CCCCN)C(N)=O)[C@@H](C)O) [SEQ ID NO: 57] |
| 44.8 | 102 | Ac-[Aib]EGREKVRAQI[Aib][Aib]EGMSKWSKRKK-NH2 (SMILES CC[C@H](C)[C@H](NC(=O)[C@H](CCC(N)=O)NC(=O)[C@H](C)NC(=O)[C@H](CCCNC(=N)N)NC(=O)[C@@H](NC(=O)[C@H](CCCCN)NC(=O)[C@H](CCC(=O)O)NC(=O)[C@H](CCCNC(=N)N)NC(=O)CNC(=O)[C@H](CCC(=O)O)NC(=O)C(C)(C)NC(C)=O)C(C)C)C(=O)NC(C)(C)C(=O)NC(C)(C)C(=O)N[C@@H](CCC(=O)O)C(=O)NCC(=O)N[C@@H](CCSC)C(=O)N[C@@H](CO)C(=O)N[C@@H](CCCCN)C(=O)N[C@@H](Cc1c[nH]c2ccccc12)C(=O)N[C@@H](CO)C(=O)N[C@@H](CCCCN)C(=O)N[C@@H](CCCNC(=N)N)C(=O)N[C@@H](CCCCN)C(=O)N[C@@H](CCCCN)C(N)=O) [SEQ ID NO: 11] |
| 29.8 | 86 | Ac-LEGREKVRAQI[Aib][Aib]EGQST[Phe(4-F)]S[Aib]RKK-NH2 (SMILES CC[C@H](C)[C@H](NC(=O)[C@H](CCC(N)=O)NC(=O)[C@H](C)NC(=O)[C@H](CCCNC(=N)N)NC(=O)[C@@H](NC(=O)[C@H](CCCCN)NC(=O)[C@H](CCC(=O)O)NC(=O)[C@H](CCCNC(=N)N)NC(=O)CNC(=O)[C@H](CCC(=O)O)NC(=O)[C@H](CC(C)C)NC(C)=O)C(C)C)C(=O)NC(C)(C)C(=O)NC(C)(C)C(=O)N[C@@H](CCC(=O)O)C(=O)NCC(=O)N[C@@H](CCC(N)=O)C(=O)N[C@@H](CO)C(=O)N[C@H](C(=O)N[C@@H](Cc1ccc(F)cc1)C(=O)N[C@@H](CO)C(=O)NC(C)(C)C(=O)N[C@@H](CCCNC(=N)N)C(=O)N[C@@H](CCCCN)C(=O)N[C@@H](CCCCN)C(N)=O)[C@@H](C)O) [SEQ ID NO: 59] |
| 12.3 | 95 | Ac-[αMeL]EGREKVRAK(Ac)I[Aib][Aib]EG[Nle]STWS[Aib]RKK(Ac)-NH2 (SMILES CCCC[C@H](NC(=O)CNC(=O)[C@H](CCC(=O)O)NC(=O)C(C)(C)NC(=O)C(C)(C)NC(=O)[C@@H](NC(=O)[C@H](CCCCNC(C)=O)NC(=O)[C@H](C)NC(=O)[C@H](CCCNC(=N)N)NC(=O)[C@@H](NC(=O)[C@H](CCCCN)NC(=O)[C@H](CCC(=O)O)NC(=O)[C@H](CCCNC(=N)N)NC(=O)CNC(=O)[C@H](CCC(=O)O)NC(=O)[C@](C)(CC(C)C)NC(C)=O)C(C)C)[C@@H](C)CC)C(=O)N[C@@H](CO)C(=O)N[C@H](C(=O)N[C@@H](Cc1c[nH]c2ccccc12)C(=O)N[C@@H](CO)C(=O)NC(C)(C)C(=O)N[C@@H](CCCNC(=N)N)C(=O)N[C@@H](CCCCN)C(=O)N[C@@H](CCCCNC(C)=O)C(N)=O)[C@@H](C)O) [SEQ ID NO: 56] |
| 41 | 93 | Ac-LEGREKVRAQI[Aib][Aib]EGQSTYS[Aib]RKK-NH2 (SMILES CC[C@H](C)[C@H](NC(=O)[C@H](CCC(N)=O)NC(=O)[C@H](C)NC(=O)[C@H](CCCNC(=N)N)NC(=O)[C@@H](NC(=O)[C@H](CCCCN)NC(=O)[C@H](CCC(=O)O)NC(=O)[C@H](CCCNC(=N)N)NC(=O)CNC(=O)[C@H](CCC(=O)O)NC(=O)[C@H](CC(C)C)NC(C)=O)C(C)C)C(=O)NC(C)(C)C(=O)NC(C)(C)C(=O)N[C@@H](CCC(=O)O)C(=O)NCC(=O)N[C@@H](CCC(N)=O)C(=O)N[C@@H](CO)C(=O)N[C@H](C(=O)N[C@@H](Cc1ccc(O)cc1)C(=O)N[C@@H](CO)C(=O)NC(C)(C)C(=O)N[C@@H](CCCNC(=N)N)C(=O)N[C@@H](CCCCN)C(=O)N[C@@H](CCCCN)C(N)=O)[C@@H](C)O) [SEQ ID NO: 58] |
